Blank lines part the entries; values can stand above or below the molecule they belong to.
Columns and labels:
[1] = molecular target: soluble bovine M6P/IGF2R (mannose 6-phosphate/insulin-like growth factor II receptor) (bovine) (UniProt P08169); test: radioligand binding; competitive displacement of 1.5 nM ^125I-PMP-BSA tracer from soluble bovine M6P/IGF2R coupled to Sepharose 4B; test ligands 1 pM to 10 μM; 50 mM HEPES pH 7.4, 0.15 M NaCl, 0.05% Triton X-100; 16 h at 4°C
[2] = molecular target: soluble bovine M6P/IGF2R (mannose 6-phosphate/insulin-like growth factor II receptor) (bovine) (UniProt P08169)
[3] = molecular target: recombinant human insulin-like growth factor II (IGF-II); test: direct radioligand binding (125I-IGF-II) to FLAG-tagged receptor immunoprecipitated on M2 α-FLAG affinity resin; conditions: equimolar amounts of expressed soluble receptors from cell lysates; parent: est. 5800; read off a plot
[4] = molecular target: T1, wild-type, full-length ectodomain M6P/IGF2R mini-receptor with C-terminal FLAG (1-15F) (human, UniProt P11717 41-2304); test: radioligand binding; competitive displacement of 2 nM ^125I-PMP-BSA from FLAG-tagged soluble receptors immunoprecipitated on M2 α-FLAG resin and washed; PMP-ligands 1 pM to 10 μM; assay buffer, 4 h at 4°C; conditions: both partners purified
T1 construct: human M6P/IGF2R, all 15 ectodomain repeats; also called wild-type M6P/IGF2R construct; source: HEK 293, transiently transfected; cell lysates and conditioned media, immunoadsorbed to M2 α-FLAG resin; not shown: FLAG, C-terminal, kept

[5] = molecular target: T2, full-length ectodomain M6P/IGF2R mini-receptor with R1325A (repeat 9), C-terminal FLAG (human, UniProt P11717 41-2304, R1325A); test: as above; conditions: both partners purified
T2 construct: human M6P/IGF2R, all 15 ectodomain repeats, arginine-to-alanine substitution in the 9th domain; also called R1325AF; source: HEK 293, transiently transfected; cell lysates and conditioned media, immunoadsorbed to M2 α-FLAG resin; not shown: FLAG, C-terminal, kept

[6] = molecular target: T3, soluble bovine M6P/IGF2R (mannose 6-phosphate/insulin-like growth factor II receptor) (bovine, UniProt P08169 45-2313); test: radioligand binding; competitive displacement of 1.5 nM ^125I-PMP-BSA tracer from soluble bovine M6P/IGF2R coupled to Sepharose 4B; test ligands 1 pM to 10 μM; 50 mM HEPES pH 7.4, 0.15 M NaCl, 0.05% Triton X-100; 16 h at 4°C; conditions: both partners purified
T3 construct: soluble form of the bovine mannose 6-phosphate/IGF-II receptor as it circulates in fetal bovine serum; also called sIGF2R; soluble M6P/IGF2R; source: purified from fetal bovine serum; coupled to Sepharose 4B for the displacement assay
T3 sequence (P08169 45-2313): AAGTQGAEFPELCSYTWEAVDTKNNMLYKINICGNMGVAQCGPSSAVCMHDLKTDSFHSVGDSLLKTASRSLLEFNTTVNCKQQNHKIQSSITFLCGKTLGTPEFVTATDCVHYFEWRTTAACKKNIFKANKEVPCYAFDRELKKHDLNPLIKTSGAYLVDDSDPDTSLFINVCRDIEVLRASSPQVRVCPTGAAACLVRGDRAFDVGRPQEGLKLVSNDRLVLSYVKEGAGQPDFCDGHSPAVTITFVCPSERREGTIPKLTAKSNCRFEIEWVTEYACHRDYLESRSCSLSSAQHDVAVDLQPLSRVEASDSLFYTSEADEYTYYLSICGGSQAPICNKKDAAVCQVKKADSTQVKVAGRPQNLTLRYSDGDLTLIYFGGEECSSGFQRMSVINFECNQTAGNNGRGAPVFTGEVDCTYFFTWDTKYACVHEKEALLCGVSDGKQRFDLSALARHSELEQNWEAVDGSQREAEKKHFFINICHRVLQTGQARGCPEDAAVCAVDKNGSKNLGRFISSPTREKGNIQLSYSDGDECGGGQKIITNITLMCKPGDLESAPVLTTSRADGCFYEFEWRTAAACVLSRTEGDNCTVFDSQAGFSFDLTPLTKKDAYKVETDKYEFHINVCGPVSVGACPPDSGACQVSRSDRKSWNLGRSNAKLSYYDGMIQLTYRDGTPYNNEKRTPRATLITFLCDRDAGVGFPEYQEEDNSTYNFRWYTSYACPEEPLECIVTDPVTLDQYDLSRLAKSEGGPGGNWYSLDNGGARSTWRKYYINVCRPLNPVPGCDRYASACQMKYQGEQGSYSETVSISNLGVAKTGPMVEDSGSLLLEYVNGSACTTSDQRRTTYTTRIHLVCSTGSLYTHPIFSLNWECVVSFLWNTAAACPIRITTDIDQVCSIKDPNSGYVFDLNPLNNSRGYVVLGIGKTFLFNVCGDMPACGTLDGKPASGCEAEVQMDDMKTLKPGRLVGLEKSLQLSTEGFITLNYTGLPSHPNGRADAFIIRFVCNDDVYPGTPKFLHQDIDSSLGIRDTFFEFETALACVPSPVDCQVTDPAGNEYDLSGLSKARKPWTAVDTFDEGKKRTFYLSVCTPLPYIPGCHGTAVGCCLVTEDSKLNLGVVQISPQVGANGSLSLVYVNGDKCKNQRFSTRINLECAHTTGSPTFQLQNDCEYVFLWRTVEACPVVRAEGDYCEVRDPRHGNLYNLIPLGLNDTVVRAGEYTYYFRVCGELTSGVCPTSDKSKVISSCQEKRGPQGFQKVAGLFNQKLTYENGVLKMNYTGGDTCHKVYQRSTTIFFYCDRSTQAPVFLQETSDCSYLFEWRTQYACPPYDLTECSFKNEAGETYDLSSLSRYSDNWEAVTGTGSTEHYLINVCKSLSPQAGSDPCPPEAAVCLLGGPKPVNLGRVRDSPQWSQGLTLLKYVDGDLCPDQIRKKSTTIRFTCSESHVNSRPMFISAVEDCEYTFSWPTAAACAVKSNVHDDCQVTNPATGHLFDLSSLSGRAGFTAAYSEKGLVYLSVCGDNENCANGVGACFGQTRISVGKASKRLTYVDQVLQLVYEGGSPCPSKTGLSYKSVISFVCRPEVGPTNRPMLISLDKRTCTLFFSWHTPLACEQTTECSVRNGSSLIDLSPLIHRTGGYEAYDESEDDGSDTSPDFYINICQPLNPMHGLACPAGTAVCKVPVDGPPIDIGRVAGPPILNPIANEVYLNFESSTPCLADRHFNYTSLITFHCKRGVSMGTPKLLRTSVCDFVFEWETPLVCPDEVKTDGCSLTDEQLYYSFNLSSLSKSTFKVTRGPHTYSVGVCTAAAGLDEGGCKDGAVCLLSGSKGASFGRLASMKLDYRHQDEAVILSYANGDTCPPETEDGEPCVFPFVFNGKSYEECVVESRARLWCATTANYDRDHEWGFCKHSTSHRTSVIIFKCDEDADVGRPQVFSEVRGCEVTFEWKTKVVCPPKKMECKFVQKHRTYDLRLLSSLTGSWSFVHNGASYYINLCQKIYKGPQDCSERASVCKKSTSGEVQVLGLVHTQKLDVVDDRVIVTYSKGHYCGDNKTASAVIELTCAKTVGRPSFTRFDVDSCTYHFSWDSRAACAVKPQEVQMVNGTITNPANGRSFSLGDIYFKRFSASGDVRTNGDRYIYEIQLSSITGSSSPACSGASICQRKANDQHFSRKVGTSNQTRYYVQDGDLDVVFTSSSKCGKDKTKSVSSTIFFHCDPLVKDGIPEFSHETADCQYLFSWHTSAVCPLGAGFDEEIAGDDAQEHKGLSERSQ

[7] = molecular target: T1, wild-type, full-length ectodomain …; test: radioligand binding; direct binding of ^125I-PMP-BSA or ^125I-hGUS to equimolar FLAG-tagged soluble receptors immunoadsorbed from HEK 293 lysates/conditioned media to M2 α-FLAG resin and washed; conditions: both partners purified
[8] = molecular target: T4, full-length ectodomain M6P/IGF2R mini-receptor with R426A (repeat 3), C-terminal FLAG (human, UniProt P11717 41-2304, R426A); test: as above; conditions: both partners purified
T4 construct: human M6P/IGF2R, all 15 ectodomain repeats, arginine-to-alanine substitution in the 3rd domain; also called R426A mutant construct; source: HEK 293, transiently transfected; cell lysates and conditioned media, immunoadsorbed to M2 α-FLAG resin; not shown: FLAG, C-terminal, kept

[9] = molecular target: T2, full-length ectodomain M6P/IGF2R …; test: as above; conditions: both partners purified

Sequence of soluble bovine M6P/IGF2R (mannose 6-phosphate/insulin-like growth factor II receptor) (bovine) (P08169 45-2313): as above

IC50 [1]: 13 nM | RBA (relative binding affinity, normalized to free M6P) [1]: 5540
Molecule: pentamannosyl 6-phosphate-derivatized bovine insulin (PMP-INS) (ligand)

IC50 [1]: 120 nM | RBA (relative binding affinity, normalized to free M6P) [1]: 600
Molecule: pentamannosyl 6-phosphate-derivatized lysyl-tyrosyl-lysine (PMP-KYK) (peptide)

suppression of growth (MTT, 2 days) of mouse L cells over-expressing the M6P/IGF2R, PMP-SYK 1 pM to 1 μM; blocked by saturating M6P [2]: 50% | IC50 [1]: 52 nM | RBA (relative binding affinity, normalized to free M6P) [1]: 1380
Molecule: pentamannosyl 6-phosphate-derivatized seryl-tyrosyl-lysine (PMP-SYK) (peptide)

response [3]: 5300 CPM
Molecule: wild-type, full-length ectodomain M6P/IGF2R mini-receptor with C-terminal FLAG (1-15F) (from UniProt P11717) R426A

response [3]: 5900 CPM
Molecule: wild-type, full-length ectodomain M6P/IGF2R mini-receptor with C-terminal FLAG (1-15F) (from UniProt P11717) R426A; R1325A

response [3]: 5000 CPM
Molecule: wild-type, full-length ectodomain M6P/IGF2R mini-receptor with C-terminal FLAG (1-15F) (from UniProt P11717) R1325A

binding result [4]: binds | binding result [5]: binds | IC50 [6]: 21 nM
B1: pentamannosyl 6-phosphate-derivatized chicken egg ovalbumin (PMP-OVA) (ligand, UniProt P01012 1-386, looked up)
chain: MGSIGAASMEFCFDVFKELKVHHANENIFYCPIAIMSALAMVYLGAKDSTRTQINKVVRFDKLPGFGDSIEAQCGTSVNVHSSLRDILNQITKPNDVYSFSLASRLYAEERYPILPEYLQCVKELYRGGLEPINFQTAADQARELINSWVESQTNGIIRNVLQPSSVDSQTAMVLVNAIVFKGLWEKAFKDEDTQAMPFRVTEQESKPVQMMYQIGLFRVASMASEKMKILELPFASGTMSMLVLLPDEVSGLEQLESIINFEKLTEWTSSNVMEERKIKVYLPRMKMEEKYNLTSVLMAMGITDVFSSSANLSGISSAESLKISQAVHAAHAEINEAGREVVGSAEAGVDAASVSEEFRADHPFLFCIKHIATNAVLFFGRCVSP
modifications: pentamannosyl 6-phosphate (PMP) coupled by reductive amination, approximately 13 PMP groups
notes: chicken egg white albumin (ovalbumin); source: bought: Sigma (A-5503), conjugated to PMP with NaCNBH3, dialysed and gel filtered (Sephadex G-50)

binding result [7]: binds | binding result [8]: binds | binding result [9]: binds
B2: human β-glucuronidase (hGUS) (enzyme, UniProt P08236 23-651, looked up)
chain: LQGGMLYPQESPSRECKELDGLWSFRADFSDNRRRGFEEQWYRRPLWESGPTVDMPVPSSFNDISQDWRLRHFVGWVWYEREVILPERWTQDLRTRVVLRIGSAHSYAIVWVNGVDTLEHEGGYLPFEADISNLVQVGPLPSRLRITIAINNTLTPTTLPPGTIQYLTDTSKYPKGYFVQNTYFDFFNYAGLQRSVLLYTTPTTYIDDITVTTSVEQDSGLVNYQISVKGSNLFKLEVRLLDAENKVVANGTGTQGQLKVPGVSLWWPYLMHERPAYLYSLEVQLTAQTSLGPVSDFYTLPVGIRTVAVTKSQFLINGKPFYFHGVNKHEDADIRGKGFDWPLLVKDFNLLRWLGANAFRTSHYPYAEEVMQMCDRYGIVVIDECPGVGLALPQFFNNVSLHHHMQVMEEVVRRDKNHPAVVMWSVANEPASHLESAGYYLKMVIAHTKSLDPSRPVTFVSNSNYAADKGAPYVDVICLNSYYSWYHDYGHLELIQLQLATQFENWYKKYQKPIIQSEYGAETIAGFHQDPPLMFTEEYQKSLLEQYHLGLDQKRRKYVVGELIWNFADFMTEQSPTRVLGNKKGIFTRQRQPKSAAFLLRERYWKIANETRYPHSVAKSQCLENSLFT
modifications: multiple high-mannose N-linked oligosaccharides capped with M6P; ^125I-labelled (IODOGEN) where used as tracer
notes: human β-glucuronidase, a homotetrameric lysosomal enzyme; source: purified human β-glucuronidase provided by Dr. William S. Sly

Source: paper PMC5308735, “Inhibition of insulin-like growth factor II (IGF-II)-dependent cell growth by multidentate pentamannosyl 6-phosphate-based ligands targeting the mannose 6-phosphate/IGF-II receptor” (Oncotarget, 2016)
